The source of these data is publication PMC10070186, “Unusual peptide-binding proteins guide pyrroloindoline alkaloid formation in crocagin biosynthesis” (Nature Chemistry, 2023).

Conditions in all cases: both partners purified
One test addresses T1, CgnC (Chondromyces crocatus CM c5).
T1 chain: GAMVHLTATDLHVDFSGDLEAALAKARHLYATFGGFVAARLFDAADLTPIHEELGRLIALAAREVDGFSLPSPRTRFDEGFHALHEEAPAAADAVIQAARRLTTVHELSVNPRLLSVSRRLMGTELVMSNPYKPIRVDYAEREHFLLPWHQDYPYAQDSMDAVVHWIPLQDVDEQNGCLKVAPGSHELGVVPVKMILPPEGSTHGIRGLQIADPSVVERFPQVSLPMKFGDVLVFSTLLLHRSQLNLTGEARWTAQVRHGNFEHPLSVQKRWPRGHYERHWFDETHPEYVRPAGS
Briefly: SEC; size-exclusion chromatography of the single proteins in solution. For orientation: Size exclusion chromatography separates by hydrodynamic size, large species first.

Test [1] deals with T2, CgnB (Chondromyces crocatus CM c5).
T2 construct: CgnB of the crocagin BGC of Chondromyces crocatus CM c5; Construct details are in the Supplementary Methods; source: purified (HisTrap, His-SUMO removed with TEV protease, Superdex 200)
Briefly: MST; microscale thermophoresis in the presence of a constant, large excess of CgnE (250 µM). Background: In MST a laser heats a spot of the sample, and binding alters the fluorescence response.

In a further test the target is T3, CgnE (Chondromyces crocatus CM c5).
T3 construct: CgnE of the crocagin BGC of Chondromyces crocatus CM c5; Construct details are in the Supplementary Methods; source: purified (HisTrap, His-SUMO removed with TEV protease, Superdex 200)
Briefly: MST; microscale thermophoresis of two components; which one was titrated is told only in Fig. 3c.

In test [2] the target is T2, CgnB. The test is described as above.
For test [3], the target named is T4, CgnE in the presence of CgnA (400 µM) (Chondromyces crocatus CM c5).
T4 construct: CgnE of Chondromyces crocatus CM c5, as m4; CgnA of Chondromyces crocatus CM c5, 21 amino acids, as m1; also called CgnA-CgnE; source: purified CgnE mixed with 400 µM CgnA
The test can be described thus: MST; microscale thermophoresis in the presence of CgnA (400 µM).

Test [4] deals with T5, CgnB in the presence of CgnA (400 µM) (Chondromyces crocatus CM c5).
T5 construct: CgnB of Chondromyces crocatus CM c5, as m2; CgnA of Chondromyces crocatus CM c5, 21 amino acids, as m1; also called CgnA-CgnB; source: purified CgnB mixed with 400 µM CgnA
Described as above.

B1: CgnC (enzyme)
chain: GAMVHLTATDLHVDFSGDLEAALAKARHLYATFGGFVAARLFDAADLTPIHEELGRLIALAAREVDGFSLPSPRTRFDEGFHALHEEAPAAADAVIQAARRLTTVHELSVNPRLLSVSRRLMGTELVMSNPYKPIRVDYAEREHFLLPWHQDYPYAQDSMDAVVHWIPLQDVDEQNGCLKVAPGSHELGVVPVKMILPPEGSTHGIRGLQIADPSVVERFPQVSLPMKFGDVLVFSTLLLHRSQLNLTGEARWTAQVRHGNFEHPLSVQKRWPRGHYERHWFDETHPEYVRPAGS
modifications: sequence from Supplementary Table 8 (the excerpt mark inside it is read as contiguous); N-terminal GA is a cloning remnant; dimer by size-exclusion chromatography / sequence from Supplementary Table …
The term stoichiometry N denotes a count of units in the complex or per binding partner. On to B1, for which, in the test with CgnC, the “stoichiometry N” value was found to be 2.

B2: CgnC in the presence of a constant, large excess (250 µM) of CgnE (complex)
chain 1: GAMVHLTATDLHVDFSGDLEAALAKARHLYATFGGFVAARLFDAADLTPIHEELGRLIALAAREVDGFSLPSPRTRFDEGFHALHEEAPAAADAVIQAARRLTTVHELSVNPRLLSVSRRLMGTELVMSNPYKPIRVDYAEREHFLLPWHQDYPYAQDSMDAVVHWIPLQDVDEQNGCLKVAPGSHELGVVPVKMILPPEGSTHGIRGLQIADPSVVERFPQVSLPMKFGDVLVFSTLLLHRSQLNLTGEARWTAQVRHGNFEHPLSVQKRWPRGHYERHWFDETHPEYVRPAGS
chain 2: GMGGRRTIGIRSGEGAIMNASDFYALLRGRGMPVVVDDAEAAAVVSELGFRTVPFEAFDFDSPSEDPALVIVAQMGNVDALHGLWERSGTPLMHLALAKFDGGLSRLRAGLARVLAVDTDAALKRRAEAYEQLFSSASVEIASGEGVLRCHIGDEVEVGNCGDTLEQGFLYSVAEFLEASVVNLEGERSTFWVEGELPFDGFIHLSNSAALKERWGGMLDEFMRRSREGANLVRFADNVIDRLVVGGVDVTSALAGLSQGEERGMAATEFGLGCADAEAAEPFGVNSLLHKSAGGAYIGIGKGLRIPHIDFIARGATIRFIPAAEG
modifications: CgnC is a dimer and CgnE a monomer in solution when alone; stoichiometry of the complex is not given
For orientation: Kd means a measure of binding affinity in units of concentration. Turning to B2, the Kd with CgnB [1] turned out to be 28 µM.

B3: CgnC (enzyme)
chain: GAMVHLTATDLHVDFSGDLEAALAKARHLYATFGGFVAARLFDAADLTPIHEELGRLIALAAREVDGFSLPSPRTRFDEGFHALHEEAPAAADAVIQAARRLTTVHELSVNPRLLSVSRRLMGTELVMSNPYKPIRVDYAEREHFLLPWHQDYPYAQDSMDAVVHWIPLQDVDEQNGCLKVAPGSHELGVVPVKMILPPEGSTHGIRGLQIADPSVVERFPQVSLPMKFGDVLVFSTLLLHRSQLNLTGEARWTAQVRHGNFEHPLSVQKRWPRGHYERHWFDETHPEYVRPAGS
modifications: sequence from Supplementary Table 8 (the excerpt mark inside it is read as contiguous); N-terminal GA is a cloning remnant; dimer by size-exclusion chromatography
With B3, the Kd in the test with CgnE was ~1 µM; with CgnB [2], ~6 µM; in test [4], ~0.1 µM. Further, the “fold increase of the CgnC–CgnE affinity on addition of CgnA (400 µM)” value in test [3] turned out to be 2 fold.
MKKTIKQISAGDRSKKGN [CgnA leader peptide (CgnA^LP)] showed an equilibrium dissociation constant (Kd) with CgnE of 514 µM. Also, the “fold reduction in affinity compared to CgnA” value with CgnB [2] is 8 fold.
